The values below come from the nanobody polyreactivity screen of Harvey et al. (2022).

The data set can be described thus: yeast display, Sf9 membrane polyspecificity reagent, FACS + sequencing; frameworks hold sequencing errors. In a few lines:
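Genes from sorted yeast were amplified by colony PCR, read by MiSeq 2 × 250 sequencing and filtered on CDR length. These cells carried a synthetic nanobody library in Saccharomyces cerevisiae BJ5465 and were sorted by FACS into low and high (top ~1%) gates on anti-HA and streptavidin fluorescence. Polyreactivity is labelled according to the gate of origin.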
On to “QVQLVESGGGLVQAGGSLRLSCAASGRIFDLYTMGWYRQAPGKERELVAAISSSGGSTYYADSVKGRFTISRDNARNTVYLQMNSLKPEDTAVYYCNADWYYAGYGYWGQGTQVTVSS”, for which the “polyreactivity (PSR sort gate)” value is “low polyreactivity”. To “QVQLVESGGGLVQAGGSLRLSCAASGRIFDQYALGGSRQAPGKERELVAAITSGGSTYYADSVKGRFTISRDNAKNTVYLQMNSLKPEDTAVYYCAAEWQWYGYVLYKYYYWGQGTQVTVSS” belongs “high polyreactivity”; to “QVQLVESGGGLVQAGGSLRLSCAASGRIFDRNAMGWYRQAPGKERELVATISSGDTTDYADSVKGRFTISRDNAKNTVYLQMNSLKPEDTAVYYITIYNYWGQGTQVTVSS”, “low polyreactivity”. “QVQLVESGGGLVQAGGSLRLSCAASGRIFDRNAMVWYRQEPWKERELVAAIDDSGGDTSYADSVKGRFTISRDNAKNTVYLQMNSLKPEDTAVYYCNAGYADFVTYPRYYYWGQGTQVTLSS”: the “polyreactivity (PSR sort gate)” value is reported as “low polyreactivity”. Consider “QVQLVESGGGLVQAGGSLRLSCAASGRIFDRYAMGWYRQAPGKERELVAAITSSGGRTYYADSVKGRFTISRDNAKNTVYLQMYSLKPEDTAVYYCAARWYGGYNYWGQGTQVTVSS”, for which the “polyreactivity (PSR sort gate)” value is “high polyreactivity”. As to “QVQLVESGGGLVQAGGSLRLSCAASGRIFDRYAMGWYRQAPGKERELVASITSSGGNTYYADSVKGRFTISRDNAKNTVYLQMNSLKPEDTAVYYCAKPQRVWQYGNYYYWGQGTQVTVSS”, the “polyreactivity (PSR sort gate)” value was “high polyreactivity”.

In the case of “QVQLVESGGGLVQAGGSLRLSCAASGRIFDRYAMGWYRQAPGKERELVATIDSGGSTNYADSVKGRFTISRDNAKNTVYLQMNSLKPEDTAVYYCAVVTHSGYWSYYYWGQGTQVTVSS”, the “polyreactivity (PSR sort gate)” value is listed as “low polyreactivity”.

As for “QVQLVESGGGLVQAGGSLRLSCAASGRIFDSNAMGWYRQAPGKERELVAYITSGGRTYYADSVKGRFTISRDNAKNTVYLQMNSLKAEDTAVYYCAVRSYKRGPLDYWGQGTQVTVSS”, the “polyreactivity (PSR sort gate)” value is recorded as “high polyreactivity”.

For “QVQLVESGGGLVQAGGSLRLSCAASGRIFDTNAMGWYRQAPGKERAFVAAISRSGGSTYYADSVKGRFTISRDNAKNTVYLQMNSLKPEDTAVYYCAARWYVLQPLGYDATHRKYYWGQGTQVTVSS”, the “polyreactivity (PSR sort gate)” value is given as “high polyreactivity”. The entry for “QVQLVESGGGLVQAGGSLRLSCAASGRIFDTNAMGWYRQAPGKERELVAAISSGDTTNYADSVKGRFTISRDNAKNTVYLQMNSLKPEDTAVYYCAVYAISFGWSGWTYEDSWGQGTQVTVSS” is “low polyreactivity”; for “QVQLVESGGGLVQAGGSLRLSCAASGRIFDTYVMGWYRQAPGKERELVAAISGSGGSTYYADSVKGRFTISRDIAKNTVYLQMNSLKPEDTAVYYCAAARRYYAYRYDYWGQGTQVSVSS” it is “high polyreactivity”. To “QVQLVESGGGLVQAGGSLRLSCAASGRIFDVNAMGWYRQAPGKERELVAAIRSGGRTNYADSVNGRFTISRDNAKNTVYLQMNSLKPEDTAVYYCAAVVWSSLDDYWGQGTQVTVSS” belongs “high polyreactivity”. Turning to “QVQLVESGGGLVQAGGSLRLSCAASGRIFDVNVMGWYRQAPGKERELVADISSGGGTDYADSVKGRFTISRDNAKNTVYLQMNILKQEDTAVYSCDWGQGTQVTVSS”, the “polyreactivity (PSR sort gate)” value is “low polyreactivity”. On to “QVQLVESGGGLVQAGGSLRLSCAASGRIFDVYAMGWYRQAPGKERELVAAITWSGGRTYYADSVKGRFTISRDNAKNTVYLQLNSLKPEDTAVYYCAAEKPYVRGYLWTYDYWGQGTQVTVSS”, for which the “polyreactivity (PSR sort gate)” value is given as “low polyreactivity”. For “QVQLVESGGGLVQAGGSLRLSCAASGRIFDWNAVGWYRQAPGKERELVAAITWTGGTTYYADSVKGRFTISRDNAKNTVYLQMNSLKPEDTAVYYCAKRGGNQFAYRARSFDYWGQGTQVTLSS”, the “polyreactivity (PSR sort gate)” value is recorded as “low polyreactivity”.

Consider “QVQLVESGGGLVQAGGSLRLSCAASGRIFDWNTMGWYRQAPGKERELVAAISYDGSTYYADSVKGRFTISRDNAKNTVYLQMNSLKPEDTAVYYCNAYPLTQYFAQGYDYWGQGTQVTVSS”, for which the “polyreactivity (PSR sort gate)” value is given as “low polyreactivity”. The entry for “QVQLVESGGGLVQAGGSLRLSCAASGRIFDWNVMGWYRQAPGKERELVAVINDSTGTTYYADSVKGRFTISRDNAKNTVYLQMNSLKPEDTAVYYCSADWSVFTYFYGYDYWGQGTQVTVSS” is “low polyreactivity”; for “QVQLVESGGGLVQAGGSLRLSCAASGRIFDWYAMGWYRQAPGKERELVAAISTSGANTYYADSVKGRFTISRDNAKNTVYLQMNSLKPEDTAVYYCATDPYQPYEGDYWGQGSQVTVSS” it is “low polyreactivity”; for “QVQLVESGGGLVQAGGSLRLSCAASGRIFDYNTLGWYRQAPGKERELVAAISASGTRTYYADSVKGRFTISRDNAKNTVYLQMNSLKPEDTAVYYCAAVYSYIASYLRYDYWGQGTQVTVSS” it is “high polyreactivity”. In the case of “QVQLVESGGGLVQAGGSLRLSCAASGRIFDYYAMGWYRQAPGKERELVAAISLIGASTYYADSVKGRFTISRDNAKNTVYLQMNSLKPEDTAVYYCAAEFYLRRFKVTKRYWFDYWGQGTQVTVSS”, the “polyreactivity (PSR sort gate)” value was “low polyreactivity”.
